The nature of this data set: Adenosine deaminase (ADA) enzymatic activity assay kit. It counts as biochemical. The settings on record: purified protein at 5 μg/mL; for % of WT activity: compared to WT-ADA2. The procedure:
Adenosine deaminase activity was determined using an adenosine deaminase (ADA) assay kit (Genway, San Diego, Calif.; Cat. No. BQ014EALD) with minor modifications. The ADA assay is based on the enzymatic deamination of adenosine to inosine, which is converted to hypoxanthine by purine nucleoside phosphorylase (PNP). Hypoxanthine is then converted to uric acid and hydrogen peroxide by xanthine oxidase (XOD). Hydrogen peroxide is further reacted with N-Ethyl-N-(2-hydroxy-3-sulfopropyl)-3-methylaniline (EHSPT) and 4-aminoantipyrine (4-AA) in the presence of peroxidase (POD) to generate quinone dye, which is monitored in a kinetic manner.
Briefly, 5 μL samples in duplicates (at appropriate dilutions to measure steady-state, non-saturating enzyme activity) were added to 120 μL R1 reagent (provided by the manufacturer; 50 mM Tris HCL, pH 8.0, 2 mM 4-AA, 0.1 U/mL PNP, 0.2 U/mL XOD, 0.6 U/mL peroxidase) in a 96 well plate, according to manufacturer's instructions. The mixtures were incubated at 37° C. for approximately 5 min and 60 μL of R2 reagent (provided by the manufacturer; 50 mM Tris HCl, pH 4.0, 10 mM Adenosine, 2 mM EHSPT) was added to the mixtures. Then, change in absorbance (AA) at 556 nm over time at 37° C. was measured. One unit of ADA is the amount of ADA that generates one μmole of inosine from adenosine per minute at 37° C. Adenosine deaminase activity in mU/mL was calculated using the following formula: 1 mU/mL=(ΔA/min×Tv)/(Sv×ϵ×1) • where Tv=total volume (185 μL), Sv=sample volume (5 μL), ϵ=32.2×10^−3 μM^−1 cm^−1, 1=0.5 cm.
Adenosine deaminase activity of WT rHuADA2 and variants tested above were determined using the adenosine deaminase activity (ADA) assay described in Example 4. Activity was assessed on purified rHuADA2 WT and variants that were diluted to 5 μg/mL, and then serially diluted 2 fold to generate 4 measurements.
Adenosine deaminase activity of PEGylated rHuADA2 and variants was assessed using the method described in Example 4, and compared to the activity of the corresponding non-PEGylated form.
Selected candidate variants described in Table 8 above, containing an amino acid substitution in a residue that play a role in enzymatic activity, were assessed for their adenosine deaminase activity using the method described in Example 4. To perform the experiments, purified WT rHuADA2 and tested variants were prepared at 5 μg/mL concentration to normalize the amount of protein in each experiment.

B1: H267N: ADA2 variant SEQ ID NO:36 (protein)
chain: IDETRAHLLLKEKMMRLGGRLVLNTKEELANERLMTLKIAEMKEAMRTLIFPPSMHFFQAKHLIERSQVFNILRMMPKGAALHLHDIGIVTMDWLVRNVTYRPHCHICFTPRGIMQFRFAHPTPRPSEKCSKWILLEDYRKRVQNVTEFDDSLLRNFTLVTQHPEVIYTNQNVVWSKFETIFFTISGLIHYAPVFRDYVFRSMQEFYEDNVLYMEIRARLLPVYELSGEHHDEEWSVKTYQEVAQKFVETHPEFIGIKIIYSDNRSKDVAVIAESIRMAMGLRIKFPTVVAGFDLVGHEDTGHSLHDYKEALMIPAKDGVKLPYFFHAGETDWQGTSIDRNILDALMLNTTRIGHGFALSKHPAVRTYSWKKDIPIEVCPISNQVLKLVSDLRNHPVATLMATGHPMVISSDDPAMFGAKGLSYDFYEVFMGIGGMKADLRTLKQLAMNSIKYSTLLESEKNTFMEIWKKRWDKFIADVATK
modifications: human ADA2 H264N, mature numbering
As for B1, the “Adenosine deaminase activity mU/ml” value is given as 50.4 mU/ml, the “Adenosine deaminase activity ΔA/min” value is 21.9 ΔA/min and the “% of WT activity” value is reported as 65%.

B2: R222K: ADA2 variant SEQ ID NO:38 (protein)
chain: IDETRAHLLLKEKMMRLGGRLVLNTKEELANERLMTLKIAEMKEAMRTLIFPPSMHFFQAKHLIERSQVFNILRMMPKGAALHLHDIGIVTMDWLVRNVTYRPHCHICFTPRGIMQFRFAHPTPRPSEKCSKWILLEDYRKRVQNVTEFDDSLLRNFTLVTQHPEVIYTNQNVVWSKFETIFFTISGLIHYAPVFRDYVFRSMQEFYEDNVLYMEIRAKLLPVYELSGEHHDEEWSVKTYQEVAQKFVETHPEFIGIKIIYSDHRSKDVAVIAESIRMAMGLRIKFPTVVAGFDLVGHEDTGHSLHDYKEALMIPAKDGVKLPYFFHAGETDWQGTSIDRNILDALMLNTTRIGHGFALSKHPAVRTYSWKKDIPIEVCPISNQVLKLVSDLRNHPVATLMATGHPMVISSDDPAMFGAKGLSYDFYEVFMGIGGMKADLRTLKQLAMNSIKYSTLLESEKNTFMEIWKKRWDKFIADVATK
modifications: human ADA2 R219K, mature numbering
In the case of B2, the “Adenosine deaminase activity mU/ml” value amounted to 118.5 mU/ml, the “Adenosine deaminase activity ΔA/min” value is reported as 51.5 ΔA/min and the “% of WT activity” value came out at 152%.

B3: R222N: ADA2 variant SEQ ID NO:40 (protein)
chain: IDETRAHLLLKEKMMRLGGRLVLNTKEELANERLMTLKIAEMKEAMRTLIFPPSMHFFQAKHLIERSQVFNILRMMPKGAALHLHDIGIVTMDWLVRNVTYRPHCHICFTPRGIMQFRFAHPTPRPSEKCSKWILLEDYRKRVQNVTEFDDSLLRNFTLVTQHPEVIYTNQNVVWSKFETIFFTISGLIHYAPVFRDYVFRSMQEFYEDNVLYMEIRANLLPVYELSGEHHDEEWSVKTYQEVAQKFVETHPEFIGIKIIYSDHRSKDVAVIAESIRMAMGLRIKFPTVVAGFDLVGHEDTGHSLHDYKEALMIPAKDGVKLPYFFHAGETDWQGTSIDRNILDALMLNTTRIGHGFALSKHPAVRTYSWKKDIPIEVCPISNQVLKLVSDLRNHPVATLMATGHPMVISSDDPAMFGAKGLSYDFYEVFMGIGGMKADLRTLKQLAMNSIKYSTLLESEKNTFMEIWKKRWDKFIADVATK
modifications: human ADA2 R219N, mature numbering
For the molecule B3, the “Adenosine deaminase activity mU/ml” value amounted to 81.5 mU/ml, the “Adenosine deaminase activity ΔA/min” value is 35.4 ΔA/min and the “% of WT activity” value amounted to 104%.

B4: R222A: ADA2 variant SEQ ID NO:41 (protein)
chain: IDETRAHLLLKEKMMRLGGRLVLNTKEELANERLMTLKIAEMKEAMRTLIFPPSMHFFQAKHLIERSQVFNILRMMPKGAALHLHDIGIVTMDWLVRNVTYRPHCHICFTPRGIMQFRFAHPTPRPSEKCSKWILLEDYRKRVQNVTEFDDSLLRNFTLVTQHPEVIYTNQNVVWSKFETIFFTISGLIHYAPVFRDYVFRSMQEFYEDNVLYMEIRAALLPVYELSGEHHDEEWSVKTYQEVAQKFVETHPEFIGIKIIYSDHRSKDVAVIAESIRMAMGLRIKFPTVVAGFDLVGHEDTGHSLHDYKEALMIPAKDGVKLPYFFHAGETDWQGTSIDRNILDALMLNTTRIGHGFALSKHPAVRTYSWKKDIPIEVCPISNQVLKLVSDLRNHPVATLMATGHPMVISSDDPAMFGAKGLSYDFYEVFMGIGGMKADLRTLKQLAMNSIKYSTLLESEKNTFMEIWKKRWDKFIADVATK
modifications: human ADA2 R219A, mature numbering
For B4, the “Adenosine deaminase activity mU/ml” value worked out at 31.2 mU/ml, the “Adenosine deaminase activity ΔA/min” value was 13.6 ΔA/min and the “% of WT activity” value stood at 40%.

B5: L224V: ADA2 variant SEQ ID NO:43 (protein)
chain: IDETRAHLLLKEKMMRLGGRLVLNTKEELANERLMTLKIAEMKEAMRTLIFPPSMHFFQAKHLIERSQVFNILRMMPKGAALHLHDIGIVTMDWLVRNVTYRPHCHICFTPRGIMQFRFAHPTPRPSEKCSKWILLEDYRKRVQNVTEFDDSLLRNFTLVTQHPEVIYTNQNVVWSKFETIFFTISGLIHYAPVFRDYVFRSMQEFYEDNVLYMEIRARLVPVYELSGEHHDEEWSVKTYQEVAQKFVETHPEFIGIKIIYSDHRSKDVAVIAESIRMAMGLRIKFPTVVAGFDLVGHEDTGHSLHDYKEALMIPAKDGVKLPYFFHAGETDWQGTSIDRNILDALMLNTTRIGHGFALSKHPAVRTYSWKKDIPIEVCPISNQVLKLVSDLRNHPVATLMATGHPMVISSDDPAMFGAKGLSYDFYEVFMGIGGMKADLRTLKQLAMNSIKYSTLLESEKNTFMEIWKKRWDKFIADVATK
modifications: human ADA2 L221V, mature numbering
For B5, the “Adenosine deaminase activity mU/ml” value came to 96.1 mU/ml, the “Adenosine deaminase activity ΔA/min” value is given as 41.8 ΔA/min and the “% of WT activity” value stood at 123%.

B6: L224A: ADA2 variant SEQ ID NO:42 (protein)
chain: IDETRAHLLLKEKMMRLGGRLVLNTKEELANERLMTLKIAEMKEAMRTLIFPPSMHFFQAKHLIERSQVFNILRMMPKGAALHLHDIGIVTMDWLVRNVTYRPHCHICFTPRGIMQFRFAHPTPRPSEKCSKWILLEDYRKRVQNVTEFDDSLLRNFTLVTQHPEVIYTNQNVVWSKFETIFFTISGLIHYAPVFRDYVFRSMQEFYEDNVLYMEIRARLAPVYELSGEHHDEEWSVKTYQEVAQKFVETHPEFIGIKIIYSDHRSKDVAVIAESIRMAMGLRIKFPTVVAGFDLVGHEDTGHSLHDYKEALMIPAKDGVKLPYFFHAGETDWQGTSIDRNILDALMLNTTRIGHGFALSKHPAVRTYSWKKDIPIEVCPISNQVLKLVSDLRNHPVATLMATGHPMVISSDDPAMFGAKGLSYDFYEVFMGIGGMKADLRTLKQLAMNSIKYSTLLESEKNTFMEIWKKRWDKFIADVATK
modifications: human ADA2 L221A, mature numbering
Turning to B6, the “Adenosine deaminase activity mU/ml” value was 100.1 mU/ml, the “Adenosine deaminase activity ΔA/min” value is 43.5 ΔA/min and the “% of WT activity” value was determined as 128%.

B7: H267G: ADA2 variant SEQ ID NO:37 (protein)
chain: IDETRAHLLLKEKMMRLGGRLVLNTKEELANERLMTLKIAEMKEAMRTLIFPPSMHFFQAKHLIERSQVFNILRMMPKGAALHLHDIGIVTMDWLVRNVTYRPHCHICFTPRGIMQFRFAHPTPRPSEKCSKWILLEDYRKRVQNVTEFDDSLLRNFTLVTQHPEVIYTNQNVVWSKFETIFFTISGLIHYAPVFRDYVFRSMQEFYEDNVLYMEIRARLLPVYELSGEHHDEEWSVKTYQEVAQKFVETHPEFIGIKIIYSDGRSKDVAVIAESIRMAMGLRIKFPTVVAGFDLVGHEDTGHSLHDYKEALMIPAKDGVKLPYFFHAGETDWQGTSIDRNILDALMLNTTRIGHGFALSKHPAVRTYSWKKDIPIEVCPISNQVLKLVSDLRNHPVATLMATGHPMVISSDDPAMFGAKGLSYDFYEVFMGIGGMKADLRTLKQLAMNSIKYSTLLESEKNTFMEIWKKRWDKFIADVATK
modifications: human ADA2 H264G, mature numbering
Take B7: the “Adenosine deaminase activity mU/ml” value is recorded as 119.1 mU/ml, the “Adenosine deaminase activity ΔA/min” value was 51.8 ΔA/min and the “% of WT activity” value was 153%.
